Source: patent US20190315854A1 (BEIJING VDJBIO, published 2019)
Where two headings read alike, the source gives them in different places.

Assays:
[1] = biological target: T1, sIL-6R (soluble IL-6 receptor; SBH Sciences) (human, UniProt P08887 20-365); assay: SPR (BIAcore 3000), antibody on chip, sIL-6R analyte, pH 6.0
T1 construct: also called human IL-6R
T1 sequence: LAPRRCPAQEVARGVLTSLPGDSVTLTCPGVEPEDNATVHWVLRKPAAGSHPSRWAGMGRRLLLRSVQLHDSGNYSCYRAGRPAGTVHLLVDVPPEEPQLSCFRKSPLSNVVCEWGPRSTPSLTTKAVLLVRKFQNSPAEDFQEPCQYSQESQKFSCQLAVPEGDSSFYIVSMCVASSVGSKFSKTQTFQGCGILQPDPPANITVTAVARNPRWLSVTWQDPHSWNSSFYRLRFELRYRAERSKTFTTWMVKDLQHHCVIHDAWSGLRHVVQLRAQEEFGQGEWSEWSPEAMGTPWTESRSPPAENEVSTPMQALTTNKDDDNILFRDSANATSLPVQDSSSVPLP
Method: (§1) All SPR measurements were performed on a BIAcore 3000 instrument (GE Biosciences, Piscataway, N.J.). BIAcore Software-BIAcore 3000 Control Software V3.2 was used for the operation and control of the BIAcore 3000 instrument. BiaEvaluation Software V4.1 was used for the analysis of SPR data from the BIAcore 3000 instrument and data was plotted using Graph Pad Prism Software Version 5. […] The indicated antibodies were used as the ligand for the construction of the reference channel of the chip. […] Each sample was injected for 3 min at a flow rate of 30 μL/min to allow for binding to chip-bound antibody. Next, binding buffer without analyte was sent over the chip at the same flow rate to allow for dissociation of bound analyte. After 500s, remaining bound analyte was removed by injecting regeneration solution (1M Formic acid). Data was analyzed by using the Kinetics Wizard and the manual fitting programs that are both included with the BiaEvaluation Software V4.1.
(§2) SPR measurements at pH 7.4 and pH 6.0 were performed in parallel and KD values calculated according to the protocol as detailed in Example 1. The pH dependence is calculated as the ratio between the KD value at pH 6.0 and the KD value at pH 7.4, which indicates the fold of affinity decrease from the pH7.4 to pH6.0. If the pH dependence of a subject antibody described herein is over 1, it means that the antibody binds to IL-6R in such a pH-dependent manner that its binding to IL-6R at pH7.4 is higher than at pH6.0. If the pH dependence of a subject antibody described herein is lower than 1, it means that the antibody binds to IL-6R in such a pH-dependent manner that its binding to IL-6R at pH6.0 is higher than at pH7.4.

[2] = biological target: T1, sIL-6R (soluble IL-6 receptor; SBH …); assay: SPR (BIAcore 3000), antibody on chip, sIL-6R analyte, 25 C
Procedure, shortened: (§3)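 Antibody immobilized on chip, sIL-6R injected as analyte for 3 min at 30 μL/min, then buffer-only dissociation for 500 s. Surface regenerated with 1M formic acid between cycles. Kinetics obtained by fitting sensorgrams with Kinetics Wizard and manual fitting.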

[3] = biological target: T1, sIL-6R (soluble IL-6 receptor; SBH …); assay: as above; remark: listed apart in the source
Method: as §1

[4] = biological target: T2, IL-6 receptor on DS-1 cells (ATCC CRL 11102) (UniProt P08887 20-468, limits assumed); assay: cell-based or functional assay
T2 sequence (looked up): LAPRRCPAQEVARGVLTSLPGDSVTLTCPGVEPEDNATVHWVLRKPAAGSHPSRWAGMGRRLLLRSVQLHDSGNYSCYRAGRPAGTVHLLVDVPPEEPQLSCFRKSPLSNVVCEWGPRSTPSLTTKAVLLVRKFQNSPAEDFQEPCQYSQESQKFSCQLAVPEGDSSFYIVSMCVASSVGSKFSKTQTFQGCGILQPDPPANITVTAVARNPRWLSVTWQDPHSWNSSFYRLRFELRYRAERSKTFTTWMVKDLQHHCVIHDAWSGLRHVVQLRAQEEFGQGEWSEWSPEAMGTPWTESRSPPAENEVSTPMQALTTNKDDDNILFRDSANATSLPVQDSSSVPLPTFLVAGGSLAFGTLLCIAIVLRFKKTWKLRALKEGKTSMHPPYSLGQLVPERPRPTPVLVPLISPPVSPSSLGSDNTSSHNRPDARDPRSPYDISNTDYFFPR

[5] = biological target: T1, sIL-6R (soluble IL-6 receptor; SBH …); assay: SPR (BIAcore 3000), antibody on chip, sIL-6R analyte, pH 7.4; pH 7.4
Method: as §1
(§4) SPR measurements at pH 7.4 and pH 6.0 were performed in parallel and KD values calculated according to the protocol as detailed in Example 1. The pH dependence is calculated as the ratio between the KD value at pH 6.0 and the KD value at pH 7.4, which indicates the fold of affinity decrease from the pH7.4 to pH6.0. […]

[6] = biological target: T1, sIL-6R (soluble IL-6 receptor; SBH …); assay: SPR (BIAcore 3000), antibody on chip, sIL-6R analyte, 25 C; remark: listed apart in the source
Procedure, shortened: as §3

[7] = biological target: T1, sIL-6R (soluble IL-6 receptor; SBH …); assay: SPR (BIAcore 3000), antibody on chip, sIL-6R analyte, pH 7.4
Method: as §1, §2

[8] = biological target: T1, sIL-6R (soluble IL-6 receptor; SBH …); assay: SPR (BIAcore 3000), antibody on chip, sIL-6R analyte, pH 7.4; pH 7.4; remark: listed apart in the source
[9] = biological target: T1, sIL-6R (soluble IL-6 receptor; SBH …); assay: SPR (BIAcore 3000), antibody on chip, sIL-6R analyte, pH 6.0; remark: listed apart in the source
Method: as §1, §2

[10] = biological target: T1, sIL-6R (soluble IL-6 receptor; SBH …); assay: SPR (BIAcore 3000), antibody on chip, sIL-6R analyte, pH 7.4; remark: listed apart in the source
Method: as §1, §2

[11] = biological target: T1, sIL-6R (soluble IL-6 receptor; SBH …); assay: SPR (BIAcore 3000), antibody on chip, sIL-6R analyte, 25 C; remark: listed apart in the source
Method: as §1

[12] = biological target: T1, sIL-6R (soluble IL-6 receptor; SBH …); assay: SPR; ratio of KD at pH 6.0 to KD at pH 7.4; averaged between the two batches
Method: as §1, §4

[13] = biological target: T1, sIL-6R (soluble IL-6 receptor; SBH …); assay: SPR (BIAcore 3000), antibody on chip, sIL-6R analyte, 25 C; remark: listed apart in the source
Method: as §1

Kd [1]: 2 nM
koff [1]: 0.000564 s⁻¹
kon [1]: 283000 M⁻¹ s⁻¹
Kd [2]: 2.85 nM
Relative Affinity [2]: 1 fold vs 25 (Tocilizumab)
koff [2]: 0.000349 s⁻¹
kon [2]: 122000 M⁻¹ s⁻¹
Kd [3]: 1.34 nM
Relative Affinity [3]: 1 fold vs 25 (Tocilizumab)
koff [3]: 0.000252 s⁻¹
kon [3]: 188000 M⁻¹ s⁻¹
IC50 (µg/ml), inhibition of DS-1 cell proliferation, MTS assay, IL6 2 ng/mL [4]: 0.33 µg/mL
kon [5]: 122000 M⁻¹ s⁻¹
Kd [6]: 3.16 nM
Relative Affinity [6]: 1 fold vs 25 (Tocilizumab)
koff [6]: 0.000341 s⁻¹
kon [6]: 108000 M⁻¹ s⁻¹
koff [7]: 0.000341 s⁻¹
kon [7]: 108000 M⁻¹ s⁻¹
Kd [8]: 3.16 nM
Kd [9]: 1.79 nM
koff [9]: 0.000566 s⁻¹
kon [9]: 316000 M⁻¹ s⁻¹
Kd [10]: 2.85 nM
koff [10]: 0.000349 s⁻¹
Kd [11]: 2.8 nM
Relative Affinity [11]: 1 fold vs 25 (Tocilizumab)
koff [11]: 0.00035 s⁻¹
kon [11]: 125000 M⁻¹ s⁻¹
pH dependence (Fold of affinity decrease) [12]: 0.48 fold
Kd [13]: 1.71 nM
Relative Affinity [13]: 1 fold vs 25 (Tocilizumab)
koff [13]: 0.000353 s⁻¹
kon [13]: 207000 M⁻¹ s⁻¹
B1: Tocilizumab (antibody, human IgG1, kappa, V domains shown)
VH: QVQLQESGPGLVRPSQTLSLTCTVSGYSITSDHAWSWVRQPPGRGLEWIGYISYSGITTYNPSLKSRVTMLRDTSKNQFSLRLSSVTAADTAVYYCARSLARTTAMDYWGQGSLVTVSS
VL: DIQMTQSPSSLSASVGDRVTITCRASQDISSYLNWYQQKPGKAPKLLIYYTSRLHSGVPSRFSGSGSGTDFTFTISSLQPEDIATYYCQQGNTLPYTFGQGTKVEIKR
notes: also called 25; 25(control)
